The values below come from publication PMC8113479, “Following replicative DNA synthesis by time-resolved X-ray crystallography”.

For data set [1], the target named is T1, Bst DNA polymerase I large fragment (Geobacillus stearothermophilus, UniProt E1C9K5 3-580). Put plainly: X-ray crystallography; dATP and dCTP soak, 48 h, product binary complex; Co-crystals; P/T duplex annealed in Bst buffer (50 mM Tris-Cl pH 7.5, 150 mM NaCl, 1 mM EDTA, 10 mM BME) with 20 mM MgCl2; crystallization and soak conditions not in the material. The settings on record: protein: recombinant; tags: tagless; template 5' overhang 3 nt and 3' overhang 1 nt; 12 bp.

Data set [2] has as its target T1, Bst DNA polymerase I large fragment. Kind of data set: X-ray crystallography; 0 min, before dATP soak; Co-crystals; P/T duplex annealed in Bst buffer (50 mM Tris-Cl pH 7.5, 150 mM NaCl, 1 mM EDTA, 10 mM BME) with 20 mM MgCl2; crystallization and soak conditions not in the material. The settings on record: protein: recombinant; tags: tagless; template 5' overhang 5 nt (GACGT) and 3' overhang 1 nt (A); 10 bp.

Data set [3] shares this target. Kind of data set: X-ray crystallography; dATP soak, 120 min, product complex; Co-crystals; P/T duplex annealed in Bst buffer (50 mM Tris-Cl pH 7.5, 150 mM NaCl, 1 mM EDTA, 10 mM BME) with 20 mM MgCl2; crystallization and soak conditions not in the material. The settings on record: protein: recombinant; tags: tagless; template 5' overhang 4 nt and 3' overhang 1 nt; 11 bp.

B1: P+2/T duplex (primer extended by dA and dC in crystallo) (dsDNA)
DNA 1: GCGATCACGTAC
DNA 2: GACGTACGTGATCGCA
For the molecule B1, the binding result in data set [1] is recorded as “binds”.

B2: P/T duplex (starting primer-template) (dsDNA)
DNA 1: GCGATCACGT
DNA 2: GACGTACGTGATCGCA
Take B2: in data set [2], the binding result is recorded as “binds”.

B3: P+1/T duplex (primer extended by dA in crystallo) (dsDNA)
DNA 1: GCGATCACGTA
DNA 2: GACGTACGTGATCGCA
As for B3, the binding result in data set [3] is listed as “binds”.
